{"source": "the DeepSol protein solubility set"}
{"assay": "soluble on expression in E. coli; label from the status in PepcDB or PDB records"}
{"sequence": "MALIELRHVKKEFSGKAGKVTALKDIDLTVESGDIYGIIGYSGAGKSTLVRLLNGLETPTEGEVEIQGQDIALLPNKELRNFRKKIGMIFQHFNLLWSRTVLENIMLPLEIAGVPKQNRKSRAEELIKLVGLEGRETAYPSQLSGGQKQRVGIARALANNPDILLCDEATSALDPQTTDEVLELLLKINQELNLTVVLITHEMHVIRKICNRVAVMEYGEIVEEGKVIDIFKKPQTEIAKRFIQQEADKNIEETELVVEEMLEQYPNGKIVRLLFHGEQAKLPIISHIVQEYQVEVSIIQGNIQQTKQGAVGSLYIQLLGEEQNILAAIEGLRKLRVETEVIGNE", "soluble on expression in E. coli": "not soluble"}
{"sequence": "MNNIRLLNQNDLDSYIELMKFGHHNYEWDRYYLENVSIDRLKTILSNHTDYWNIFGAFEDDELVATCTLKQMNYVGKCHKAILENNFVKNNDEIVNRELINHIIQYAKEQNIETLMIAIASNNISAKVFFSSIGFENLAFEKNASKIGNEYFDENWLIYSTTE", "soluble on expression in E. coli": "not soluble"}
{"sequence": "MGSDKIHHHHHHMERIDEILSQLTTEEKVKLVVGVGLPGLFGNPHSRVAGAAGETHPVPRLGIPAFVLADGPAGLRINPTRENDENTYYTTAFPVEIMLASTWNRDLLEEVGKAMGEEVREYGVDVLLAPAMNIHRNPLCGRNFEYYSEDPVLSGEMASAFVKGVQSQGVGACIKHFVANNQETNRMVVDTIVSERALREIYLKGFEIAVKKARPWTVMSAYNKLNGKYCSQNEWLLKKVLREEWGFDGFVMSDWYAGDNPVEQLKAGNDMIMPGKAYQVNTERRDEIEEIMEALKEGKLSEEVLDECVRNILKVLVNAPSFKGYRYSNKPDLESHAEVAYEAGAEGVVLLENNGVLPFDENTHVAVFGTGQIETIKGGTGSGDTHPRYTISILEGIKERNMKFDEELASTYEEYIKKMRETEEYKPRTDSWGTVIKPKLPENFLSEKEIKKAAKKNDVAVVVISRISGEGYDRKPVKGDFYLSDDELELIKTVSKEFHDQGKKVVVLLNIGSPIEVASWRDLVDGILLVWQAGQEMGRIVADVLVGKINPSGKLPTTFPKDYSDVPSWTFPGEPKDNPQRVVYEEDIYVGYRYYDTFGVEPAYEFGYGLSYTKFEYKDLKIAIDGETLRVSYTITNTGDRAGKEVSQVYIKAPKGKIDKPFQELKAFHKTKLLNPGESEEISLEIPLRDLASFDGKEWVVESGEYEVRVGASSRDIRLRDIFLVEGEKRFKP", "soluble on expression in E. coli": "not soluble"}
{"sequence": "MGSDKIHHHHHHMPVYLYYGEDTYSLNQKIDHLVNQNVHAEWKDFNYIKLSGNEKNIAAKVFTEVMTLPFGEGNKIVHTDSDHLIGSLSNEDNNQELENQLSRIPASNILLITSNKKPDSRRTVVKTILKYAQQEEFPLVPCWDKKGIVNLIGKYAAIHQVKFTPDVTDYLVEAIGNNTARVDSEFAKLAVYASEKIISLEEIKQLVSNHNTDYQKLTIAMLRNHSNLAIAQVDKLLDSNEHPLKIVATLTSFFRTWLITKAGVEARLSDIKIAEIAEVKNPKRLYYLKDEIKFVGVQKLKNSLTLLLQLETELKSGTNNLISRIIEICMI", "soluble on expression in E. coli": "not soluble"}
{"sequence": "MRKPTYHQINPLIRLKETELLSEQQFQQLLEAETVEDVRNMLKSTVYQPYLTETFEEKFDYHSSEALGSLYRWLYEMAPEPAVVTLYTMRFTFHNLKILTKAERTGKDFDYLYLEDGRYSLNTVKSAIHTKNSSELEPALLEVIRDVFAYLEEGGLPQAIDILYDRAFLQQQRKLADELGYEELTKEVIAFIDLTNLSTMARGIVQHQNSNFLSTVLSSAGSITKKELLTYAEKSLVEFTAFVRTTNYGQLLEKIINKETNELNLLAFEKLKDDYLTSMYENGRTVAFGPLPLLAFLNAKEVEWKNLRLILVGKHSGFSNEKIRERMRKVNGV", "soluble on expression in E. coli": "not soluble"}
{"sequence": "MKLREQINSISGFRYVIDELCIHSSVGRRCLMEQEFLTEASDIEVLLSRVEIAISYQADQRKQKGLDEIAHKLMQLRDIQGTIYSLSRHVVCTDIDFFEIKFLAILSEDIRDLIRFYQLDDLSSPLPDLSHIVSVLDPEEKKIPHFYIYDAYS", "soluble on expression in E. coli": "not soluble"}
{"sequence": "SSTDQGTNPADTDDLTPTTLSLAGDFPKATEEQWEREVEKVLNRGRPPEKQLTFAECLKRLTVHTVDGIDIVPMYRPKDAPKKLGYPGVAPFTRGTTVRNGDMDAWDVRALHEDPDEKFTRKAILEGLERGVTSLLLRVDPDAIAPEHLDEVLSDVLLEMTKVEVFSRYDQGAAAEALVSVYERSDKPAKDLALNLGLDPIGFAALQGTEPDLTVLGDWVRRLAKFSPDSRAVTIDANIYHNAGAGDVAELAWALATGAEYVRALVEQGFTATEAFDTINFRVTATHDQFLTIARLRALREAWARIGEVFGVDEDKRGARQNAITSWRELTREDPYVNILRGSIATFSASVGGAESITTLPFTQALGLPEDDFPLRIARNTGIVLAEEVNIGRVNDPAGGSYYVESLTRSLADAAWKEFQEVEKLGGMSKAVMTEHVTKVLDACNAERAKRLANRKQPITAVSEFPMIGARSIETKPFPAAPARKGLAWHRDSEVFEQLMDRSTSVSERPKVFLACLGTRRDFGGREGFSSPVWHIAGIDTPQVEGGTTAEIVEAFKKSGAQVADLCSSAKVYAQQGLEVAKALKAAGAKALYLSGAFKEFGDDAAEAEKLIDGRLFMGMDVVDTLSSTLDILGVAK", "soluble on expression in E. coli": "soluble"}
{"sequence": "MSYCCCQSNIPPDGCIRDGMPVFCGLFPSGYRAPPRSLSPPAFRSVLVSGHQPQYADCQTRTGRPVRSPVTPPPAHTSAVHGALSLPGQPADMAMMCFHSQPRDEYGETDDTGMYPAHWKDWPSGCTRSQSVYR", "soluble on expression in E. coli": "soluble"}
{"sequence": "MGSDKIHHHHHHMWDRGLHSYRMVHATLKCGCHYLGRVPKNVKFPVDKVLDDGSYLSWIAPDRKSKHKGGTRIQVRVIEYTIDSENGQQTYRLIPSLMDIALFPALLLATEYHQRWEIENTIDELKTHLNGRKTPIRSLKPREVVQEIYGWLLSHYAVRTLMFQAATAASISPLRLGFTGTLKVIRRAIADFQDANSEQLPFFLQANSGDFGAKNPYRRYIAALTQQRDFNLLILQNRLDHRFTNGCIPVFIIPKQINNREGLLQKTEVRK", "soluble on expression in E. coli": "not soluble"}
{"sequence": "MSLKGSLMPANVLFSARSELWPVYQPLISTYLREMGIDFDLRRDFPPEEVDYVVYAPNGGLRDFTPFTRLKAVLSLWAGVESIADNPTLTVPLARMVDHGLTQGMTEWVVGHVLRYHLGMDAHIHGLNGDWRQDVPPLASQRQVTILGLGALGEAAARALSALGFQVTGWSRSPKELPGIACLHGPDGLDQALARAEILVLLLPSTAATENTLNTQTLARLPRGARIINPGRGPLIDDDALLAALDSGQVGHATLDVFRIEPLPRDHPYWGHPNVTVTPHIASETRPETAAQVICEEGHHHHHH", "soluble on expression in E. coli": "soluble"}
{"sequence": "MVSNPVHGLPFLPGTSFKDSTKTAFHRSQTLSYRNGYAIVRRPTVGIGGDRLQFNQLSQAELDELASKAPVLTYGQPKQAPPADFIPAHVAFDKKVLKFDAYFQEDVPMSTEEQYRIRQVNIYYYLEDDSMSVIEPVVENSGILQGKLIKRQRLAKNDRGDHYHWKDLNRGINITIYGKTFRVVDCDQFTQVFLESQGIELNPPEKMALDPYTELRKQPLRKYVTPSDFDQLKQFLTFDKQVLRFYAIWDDTDSMYGECRTYIIHYYLMDDTVEIREVHERNDGIDPFPLLMNRQRVPKVLVENAKNFPQCVLEISDQEVLEWYTAKDFIVGKSLTILGRTFFIYDCDPFTRRYYKEKFGITDLPRIDVSKREPPPVKQELPPYNGFGLVEDSAQNCFALIPKAPKKDVIKMLVNDNKVLRYLAVLESPIPEDKDRRFVFSYFLATDMISIFEPPVRNSGIIGGKYLGRTKVVKPYSTVDNPVYYGPSDFFIGAVIEVFGHRFIILDTDEYVLKYMESNAAQYSPEALASIQNHVRKREAPAPEAESKQTEKDPGVQELEALIDTIQKQLKDHSCKDNIREAFQIYDKEASGYVDRDMFFKICESLNVPVDDSLVKELLRMCSHGEGKINYYNFVRAFSN", "soluble on expression in E. coli": "soluble"}
{"sequence": "MGSDKIHHHHHHMKEILKQQYAIIDIGSNTMRLVIYEKQNGGFYKEIENTKVVARLRNYLVDGVLIEEGIEVLLQTLFQFQESTRFHQLRHVLCVATATIRQAENQEEIKKLVEGQTDFTLRVLSEYEEARYGYLAVMNSTSFSEGITVDIGGGSTEVTYFRNREILEYHSFPFGALSLKQQFIKEDIPTEEELDKLQTYLEYQFRTLPWLIDKKLPLIAIGGSARNLVKIHQNLICYPIAGVHLYKMKEEDIKNVKEELEGLSFIELQKLEGLAKDRADTIVPAVEVFHTLVNVIEAPAFVLSRKGLREGVFYEELTKDLGISYYPNVVEESLYLLSHEYEMDMEFVMQLIKHGRLICQQLEETGLISMSVKDWEVFHQAAKVFNIGKYIDEEASRLHTFYLLANKTIDGMMHKERVRLALIASYKSKMLFKQHLSPFEGWFDKNEQKKIRLLGAVLQFSAALNIRQRSLVESISITESKEGLTFKIVCEQSALAEKVQAEKQKKQLERVLKTNINLFFESKH", "soluble on expression in E. coli": "not soluble"}
{"sequence": "MKKRILAVAVTSMLLSASVFAQETVVPSRVGDLKFESDFPTQETMKNMLNEMDFQRATQAYLWGIPASSIMEWLNVSRNDFKFEEGQMGFFNTLKQKQGIITANFTTPYVIGTWNLEKTGPLIINLPEAKMAGMMLDVHQRVLSDLSLLGPDKGKGGKYLIVPPGEKYKDLNPKGYYVIRPKTNVVYGGIRILEPDVDRVVKQVVPNITTQPYADGKLGRKIPVAQVPEIDWTHIPKDGLEYWKTIHQIIQENPVEERDRFVMAQLKFLGIEKGKPFNPTEEQKKILLEASKVGRAMAQSNDYTKRFTQPYWKGTNWKDAISVSLDQRSENYDELDERAAWFYEAITVSRGMKSTIPGFGQRYLVTYQDSDGNWLSGEHTYKLHVPANVPASNFWSTTVYDENNRLMIINDAGSPDISSRKNLKVNSDGSIDVYYGPKPVKGYENNWVQTNPGEGWFTYFRFYGPTEKMFDKSWTMGDIELVKLEHHHHHH", "soluble on expression in E. coli": "soluble"}
{"sequence": "MSLSILFKNAALLDPLQADLMDAHHVLVEDNLIKEVSDRPLQVTADRTIDLRGKTLMPGLIDLHVHAVAVELNLAQQVHMPNVLVTLRSTLLLRGMLRRGFTTVRDAGGAGHALKQAIETGLTDGPRLFVSGRALSQTGGHGDMRARSDYLASDAPCPCCVRVGALARVADGVDGVRRAAREELQMGADQIKIMASGGVASPTDPVGAFGYSEDEIRAIVEEARGRQTYVLAHAYTAAAIARAVRCGVRTIEHGNLVDEPTARLMAEKGAYVVPTLVTYEALANEGAQYGLPPESVAKIADVRDAGLRSLAIYRDAGVKMGFGSDLLGPSQRLQSDEFRIRAEILGPRAVIASATVIGAEVLGMEGKLGRIAPEALADLLVVDGNPLRDVACLLGQGEHIPLVLKAGKVQFDRLNAEGHHHHHH", "soluble on expression in E. coli": "not soluble"}
{"sequence": "MSLPAKTLVQAAANSGLRAVSVRHSSQAPKVALLGAAGGIGQPLGLLLKQDPLVAHLALYDVVNTPGVAADLSHIDSNAKVTAHTGPKELYAAVENADVIVIPAGVPRKPGMTRDDLFNTNAGIVRDLAAVIAKASPKALIAIITNPVNSTVPIASEVLKKAGVYDPKRVFGVTTLDVVRSQAFVSELKGHDASKTVVPVVGGHAGITIIPLLSQVKPSTKFSEEEISKLTPRIQDAGTEVVNAKAGAGSATLSMALAGARFANALVRGIKGEKNVQCAYVASDAVKGVEYFSTPVELGPNGVEKILGVGKVSAYEQKLIDASVPELNKNIAKGVAFVKGN", "soluble on expression in E. coli": "not soluble"}
{"sequence": "MNIVSWKDANDEVAGGATTRREREVKEDQEETEVRATSGKTVIKKQPTSISSSSSSWMKSKDPRIVRVSRAFGGKDRHSKVCTLRGLRDRRVRLSVPTAIQLYDLQERLGVDQPSKAVDWLLDAAKEEIDELPPLPISPENFSIFNHHQSFLNLGQRPGQDPTQLGFKINGCVQKSTTTSREENDREKGENDVVYTNNHHVGSYGTYHNLEHHHHHHQHLSLQADYHSHQLHSLVPFPSQILVCPMTTSPTTTTIQSLFPSSSSAGSGTMETLDPRQMVSHFQMPLMGNSSSSSSQNISTLYSLLHGSSSNNGGRDIDNRMSSVQFNRTNSTTTANMSRHLGSERCTSRGSDHHM", "soluble on expression in E. coli": "soluble"}
